Series [1] deals with METTL3 (METTL3/14 complex);METTL14 (METTL3/14 complex). Kind of series: MST. As to conditions: MST and nanoDSF: 20 mM Tris pH 7.5, 50 uM ZnCl2, 1% glycerol, 1 mM DTT (MST 100 nM probe; nanoDSF 1 uM protein, 20-80 C). EMSA: 40 mM KCl, 20 mM Tris pH 7.6, 1. On the technique in general: Mobility shift assays separate free from complexed probe on a gel.
Series [2] shares this test system. Kind of series: thermal shift (nanoDSF). To be noted: MST and nanoDSF: 20 mM Tris pH 7.5, 50 uM ZnCl2, 1% glycerol, 1 mM DTT (MST 100 nM probe; nanoDSF 1 uM protein, 20-80 C). EMSA: 40 mM KCl, 20 mM Tris pH 7.6, 1.
Series [3] deals with MacroH2A.1.1 (with H2B);H2B (with MacroH2A.1.1) (;). Briefly: MST. To be noted: poly(ADP-ribose) polymer, no base sequence; MST and nanoDSF: 20 mM Tris pH 7.5, 50 uM ZnCl2, 1% glycerol, 1 mM DTT (MST 100 nM probe; nanoDSF 1 uM protein, 20-80 C). EMSA: 40 mM KCl, 20 mM Tris pH 7.6, 1.
The test system is the same in series [4]. Briefly: thermal shift (nanoDSF). As to conditions: 50 uM ZnCl2; dose-dependent; poly(ADP-ribose) polymer, no base sequence; MST and nanoDSF: 20 mM Tris pH 7.5, 50 uM ZnCl2, 1% glycerol, 1 mM DTT (MST 100 nM probe; nanoDSF 1 uM protein, 20-80 C). EMSA: 40 mM KCl, 20 mM Tris pH 7.6, 1.

For orientation: Kd means the equilibrium constant for the complex coming apart. Read a high Kd as weaker binding.

For the substance “DRACH RNA probe (4 tandem repeats of DRACH motif)”, in series [1], the equilibrium dissociation constant (Kd) was 700 nM. In series [2], the binding signal was 1 C (delta Tm).
As for PAR (poly-(ADP-ribose)), the Kd in series [1] (poly(ADP-ribose) polymer, no base sequence) is 1100 nM; in series [3], 500 nM. Also, the binding signal (C (delta Tm, maximum)) is more than 2 in series [2] (50 uM ZnCl2, concentration-dependent, poly(ADP-ribose) polymer, no base sequence) and 3 in series [4].

For the origin of these results see article PMC11992677.
